We go through three substances from patent publication US20090220470A1.

Experiment [1] addresses K48 tetra-ubiquitin (Boston Biochem) (UniProt P0CG48). Put plainly: ratio of the literature Kd of the single UBA (Raasi et al.) to the SPR Kd of the TUBE.
Experiment [2] addresses K63 tetra-ubiquitin (Boston Biochem) (UniProt P0CG48). The description is as above.
The target in experiment [3] is Mono-ubiquitin (Sigma Aldrich) (UniProt P0CG48). Put plainly: SPR (BiaCore 3000), captured via GST on anti-GST chip, mono-ubiquitin injected, steady state.
The target is the same in experiment [4]. Put plainly: SPR (Biacore), GST fusion captured on anti-GST antibody chip (150-220 RU), mono-ubiquitin injected in a 2-fold dilution series, steady-state fit. For orientation: Surface plasmon resonance follows binding to a sensor surface in real time, without labels.
Experiment [5] has as its target poly-ubiquitylated proteins (of cell lysates). Put plainly: cell-based or functional assay.
Experiment [6] has as its target K48 tetra-ubiquitin (Boston Biochem) (UniProt P0CG48). Description: SPR (BiaCore 3000), dissociation phase fitted with a double exponential, second (slow) phase.
The target in experiment [7] is K63 tetra-ubiquitin (Boston Biochem) (UniProt P0CG48). The experiment is described as above.
The target of experiment [8] is K48 tetra-ubiquitin (Boston Biochem) (UniProt P0CG48). Put plainly: SPR (BiaCore 3000), GST-TUBE captured on anti-GST chip at low density, tetra-ubiquitin injected, steady-state fit.
In experiment [9] the target is K63 tetra-ubiquitin (Boston Biochem) (UniProt P0CG48). The description is as above.
Experiment [10] has as its target K48 tetra-ubiquitin (Boston Biochem) (UniProt P0CG48). Description: SPR (BiaCore 3000), dissociation followed over two hours (data not shown).
In experiment [11] the target is K63 tetra-ubiquitin (Boston Biochem) (UniProt P0CG48). Described as above.
The target of experiment [12] is K48 tetra-ubiquitin (Boston Biochem) (UniProt P0CG48). Description: SPR (BiaCore 3000), dissociation phase fitted with a double exponential, first (rapid) phase.
Experiment [13] concerns the target K63 tetra-ubiquitin (Boston Biochem) (UniProt P0CG48). The experiment is described as above.
Experiment [14] concerns the target Mono-ubiquitin (Sigma Aldrich) (UniProt P0CG48). Put plainly: SPR (BIACORE 3000), GST-p62 UBA polypeptide captured on anti-GST antibody chip, ubiquitin injected.
The target is the same in experiment [15]. Put plainly: SPR (BIACORE 3000), GST-p62 UBA polypeptide captured on anti-GST chip, ubiquitin injected.

hHR23A TUBE (TUBE comprising 4 hHR23a UBA-1 domains, GST fusion with His6 and SV5 tags) (designed binder), sequence (chain, part): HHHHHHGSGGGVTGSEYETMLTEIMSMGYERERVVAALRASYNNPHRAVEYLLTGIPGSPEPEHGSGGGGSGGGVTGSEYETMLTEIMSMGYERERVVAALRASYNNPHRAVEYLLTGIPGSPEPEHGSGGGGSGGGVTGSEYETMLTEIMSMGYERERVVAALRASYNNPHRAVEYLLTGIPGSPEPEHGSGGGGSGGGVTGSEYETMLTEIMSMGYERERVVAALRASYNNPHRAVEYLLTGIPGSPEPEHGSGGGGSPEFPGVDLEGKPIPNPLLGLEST
Ubiquilin1 TUBE (TUBE comprising 4 ubiquilin-1 UBA domains, GST fusion with His6 and SV5 tags) (designed binder), sequence (chain, part): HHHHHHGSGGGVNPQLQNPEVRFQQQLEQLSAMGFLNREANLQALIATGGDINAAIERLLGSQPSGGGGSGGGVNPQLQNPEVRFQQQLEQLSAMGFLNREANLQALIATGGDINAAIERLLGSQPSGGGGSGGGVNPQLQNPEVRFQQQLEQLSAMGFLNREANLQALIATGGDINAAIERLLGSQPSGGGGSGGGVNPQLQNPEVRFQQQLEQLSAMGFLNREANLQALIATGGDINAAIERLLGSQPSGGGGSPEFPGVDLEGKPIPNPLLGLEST

In the case of “hHR23A TUBE (TUBE comprising 4 hHR23a UBA-1 domains, GST fusion with His6 and SV5 tags) (designed binder)”, the Kd(UBA)/Kd(TUBE) in [1] turned out to be 663 fold; in experiment [2], 943 fold. For the same substance, the binding stoichiometry (molar ratio ubiquitin:TUBE) (ubiquitin per TUBE) in [3] is 4. The Kd (commonly the free concentration of one partner at which half of the binding sites on the other are occupied at equilibrium, for simple one-to-one binding) stood at 65800 nM in [4], 9.35 nM in [8] and 4.88 nM in [9]. In experiment [5], this substance registered a lowest TUBE concentration at which protection from de-ubiquitylation was detectable of 0.17 µM. In addition, the koff (commonly the rate constant with which the complex falls apart) stood at 0.0004 s⁻¹ in [6], 0.0004 s⁻¹ in experiment [7], 0.03 s⁻¹ in [12] and 0.03 s⁻¹ in [13]. Moreover, the half-life in [10] and in experiment [11] was more than 5 h in each case. In addition, the t1/2 (first dissociation phase) in experiment [12] and in [13] was 25 s each time.

Take “Ubiquilin1 TUBE (TUBE comprising 4 ubiquilin-1 UBA domains, GST fusion with His6 and SV5 tags) (designed binder)”: the Kd(UBA)/Kd(TUBE) in experiment [1] is 84 fold; in experiment [2], 833 fold. Besides, the binding stoichiometry (molar ratio ubiquitin:TUBE) (ubiquitin per TUBE) in experiment [3] came to 4. The values for the Kd in experiment [4], in [8] and in experiment [9] were 30200 nM, 14.3 nM and 0.6 nM, respectively. Also, the lowest TUBE concentration at which protection from de-ubiquitylation was detectable in experiment [5] came out at 0.17 µM. The koff came to 0.0004 s⁻¹ in experiment [6], 0.0004 s⁻¹ in experiment [7], 0.03 s⁻¹ in experiment [12] and 0.03 s⁻¹ in experiment [13]. The half-life in experiment [10] and in [11] was more than 5 h in each case. Moreover, the t1/2 (first dissociation phase) in experiment [12] and in experiment [13] was 25 s in each case.

For the substance “p62×4 (four domains of the p62-UBA fused to GST; TUBE comprising 4 p62 UBA domains) (designed binder)”, in experiment [14], the N (stoichiometry of Ubiquitin-UBA interaction) came out at 5.8. Further, in experiment [15], the fold more binding (against one UBA copy) is 6 fold.
